Data: patent US20120121587A1 (Chugai, published 2012)

T1: Human recombinant AXL-FND1 (GST-FND1), from pET-41b(+) (human, UniProt P30530 225-331)
T1 construct: Expressed in E. coli, purified on Glutathione Sepharose; analyte in all Biacore measurements; GST put first by the usual layout of pET-41; not shown: GST-tag of vector pET-41b(+) (Novagen)
T1 sequence (looked up): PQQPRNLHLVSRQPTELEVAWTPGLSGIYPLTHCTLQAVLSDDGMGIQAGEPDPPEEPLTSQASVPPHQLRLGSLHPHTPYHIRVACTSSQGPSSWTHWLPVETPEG


Biological target: T1, Human recombinant AXL-FND1 (GST-FND1), …
Assay: SPR (Biacore T100): antibody captured on Protein A, GST-FND1 as analyte
Description: Kinetic analyses of antigen-antibody reactions of humanized AXL antibodies were carried out using Biacore T100 (BIACORE). rec-Protein A (Zymed) (hereinafter, Protein A) was immobilized onto a sensor chip, various antibodies were bound to it, then an antigen as the analyte was flushed to measure the antibody-antigen interaction. Human recombinant AXL-FND1 (prepared in 2-2; hereinafter referred to as GST-FND1) prepared at various concentrations was used as the antigen. From the sensorgrams obtained through the measurements, kinetic parameters, namely binding rate constant kₐ (1/Ms) and dissociation rate constant kd (1/s), were calculated, and Kd (M) was calculated based on these values. Biacore T100 Evaluation Software (BIACORE) was used to calculate each of the parameters.
The sensor chips were produced by immobilizing approximately 3000 RU of Protein A onto CM5 (BIACORE) by amine coupling. Using the produced sensor chip, kinetic analyses were carried out on the interaction between the Protein A-bound antibodies and GST-FND1. HBS-EP+ was used as the running buffer, and the flow rate was set to 30 μL/min. Each antibody was prepared at 1 μg/mL using the running buffer, and was subjected to binding with Protein A for two minutes. GST-FND1 as the analyte was prepared at 0.5 and 2.0 μg/mL using HBS-EP+. Measurements were carried out by first binding the various humanized AXL antibodies, chimeric AXL antibodies, or mouse AXL antibodies of interest to Protein A, then applying an analyte solution to them for a two-minute interaction, and then switching to HBS-EP+ (BIACORE) for a two-minute measurement of the dissociation phase. After completion of measurement of the dissociation phase, 30 μL of 10 mM glycine-HCl (pH 2.0) was used for washing to regenerate the sensor chip. Such binding, dissociation, and regeneration were defined as one cycle of analysis. All experiments were performed at 25° C.
Affinity evaluation of each of the variants by Biacore was carried out by the method of Example 2.

Kd [nM] | Binder
1.94 | H36/L35 (antibody, human IgG1, kappa) heavy: not shown light: DVVMTQSPLSLPVTLGQPASISCRSSRNIVHTNGNTYLEWYQQKPGKAPKLLIYKVSNRFSGVPDRFSGSGSGTDFTLKISRVEAEDVGVYYCFQGSHIPFTFGRGTKLEIKRTVAAPSVFIFPPSDEQLKSGTASVVCLLNNFYPREAKVQWKVDNALQSGNSQESVTEQDSKDSTYSLSSTLTLSKADYEKHKVYACEVTHQGLSSPVTKSFNRGEC
3.43 | H39/L0 (antibody, human IgG1, kappa) heavy: not shown light: DVVMTQSPLSLPVTLGQPASISCRSSQNIVHTNGNTYLEWYQQKPGKAPELLIYKVSNRFSGVPDRFSGSGSGTDFTLKISRVEAEDVGVYYCFQGSHIPFTFGQGTKLEIKRTVAAPSVFIFPPSDEQLKSGTASVVCLLNNFYPREAKVQWKVDNALQSGNSQESVTEQDSKDSTYSLSSTLTLSKADYEKHKVYACEVTHQGLSSPVTKSFNRGEC
1.87 | H46/L0 (antibody, human IgG1, kappa) heavy: not shown light: DVVMTQSPLSLPVTLGQPASISCRSSQNIVHTNGNTYLEWYQQKPGKAPELLIYKVSNRFSGVPDRFSGSGSGTDFTLKISRVEAEDVGVYYCFQGSHIPFTFGQGTKLEIKRTVAAPSVFIFPPSDEQLKSGTASVVCLLNNFYPREAKVQWKVDNALQSGNSQESVTEQDSKDSTYSLSSTLTLSKADYEKHKVYACEVTHQGLSSPVTKSFNRGEC
1.86 | H46/L28 (antibody, human IgG1, kappa) heavy: not shown light: DVVMTQSPLSLPVTLGQPASISCRSSQNIVHTNGNTYLEWYQQKPGKAPKLLIYKVSNRFSGVPDRFSGSGSGTDFTLKISRVEAEDVGVYYCFQGSHIPFTFGQGTKLEIKRTVAAPSVFIFPPSDEQLKSGTASVVCLLNNFYPREAKVQWKVDNALQSGNSQESVTEQDSKDSTYSLSSTLTLSKADYEKHKVYACEVTHQGLSSPVTKSFNRGEC
1.84 | H46/L1 (antibody, human IgG1, kappa) heavy: not shown light: DVVMTQSPLSLPVTLGQPASISCQSSQNIVHTNGNTYLEWYQQKPGKAPELLIYKVSNRFSGVPDRFSGSGSGTDFTLKISRVEAEDVGVYYCFQGSHIPFTFGQGTKLEIKRTVAAPSVFIFPPSDEQLKSGTASVVCLLNNFYPREAKVQWKVDNALQSGNSQESVTEQDSKDSTYSLSSTLTLSKADYEKHKVYACEVTHQGLSSPVTKSFNRGEC
2.92 | H37/L0 (antibody, human IgG1, kappa, V domains shown) VH: QVTLKESGPVLVKPTETLTLTCTVSGFSLSSFGVDWVRQAPGKGLEWMGVIWGGGSTNYNRALKSRLTISKDNSKSQVVLTMTNMDPVDTATYYCAGEGSKYGAWFAYWGQGTLVTVSS VL: DVVMTQSPLSLPVTLGQPASISCRSSQNIVHTNGNTYLEWYQQKPGKAPELLIYKVSNRFSGVPDRFSGSGSGTDFTLKISRVEAEDVGVYYCFQGSHIPFTFGQGTKLEIKR
1.9 | H46/L31 (antibody, human IgG1, kappa) heavy: not shown light: DVVMTQSPLSLPVTLGQPASISCRSSRNIVHTNGNTYLEWYQQKPGKAPKLLIYKVSNRFSGVPDRFSGSGSGTDFTLKISRVEAEDVGVYYCFQGSHIPFTFGQGTKLEIKRTVAAPSVFIFPPSDEQLKSGTASVVCLLNNFYPREAKVQWKVDNALQSGNSQESVTEQDSKDSTYSLSSTLTLSKADYEKHKVYACEVTHQGLSSPVTKSFNRGEC
2.3 | H46/L37 (antibody, human IgG1, kappa) heavy: not shown light: DVVMTQSPLSLPVTLGRPASISCRSSRNIVHTNGNTYLEWYQQKPGKAPKLLIYKVSNRFSGVPDRFSGSGSGTDFTLKISRVEAEDVGVYYCFQGSHIPFTFGRGTKLEIKRTVAAPSVFIFPPSDEQLKSGTASVVCLLNNFYPREAKVQWKVDNALQSGNSQESVTEQDSKDSTYSLSSTLTLSKADYEKHKVYACEVTHQGLSSPVTKSFNRGEC
2.92 | H38/L0 (antibody, human IgG1, kappa, V domains shown) VH: QVTLKESGPVLVKPTETLTLTCTVSGFSLSSFGVDWVRQAPGKGLEWMGVIWGGGSTNYNKALKSRLTISKDNSKSQVVLTMTNMDPVDTATYYCAGEGSKYGAWFAYWGQGTLVTVSS VL: DVVMTQSPLSLPVTLGQPASISCRSSQNIVHTNGNTYLEWYQQKPGKAPELLIYKVSNRFSGVPDRFSGSGSGTDFTLKISRVEAEDVGVYYCFQGSHIPFTFGQGTKLEIKR
3.51 | H40/L0 (antibody, human IgG1, kappa, V domains shown) VH: QVTLKESGPVLVKPTETLTLTCTVSGFSLSKFGVDWVRQARGQRLEWMGVIWGGGSTNYNSALKSRLTISKDNSKSQVVLTMTNMDPVDTATYYCAGEGSKYGAWFAYWGQGTLVTVSS VL: DVVMTQSPLSLPVTLGQPASISCRSSQNIVHTNGNTYLEWYQQKPGKAPELLIYKVSNRFSGVPDRFSGSGSGTDFTLKISRVEAEDVGVYYCFQGSHIPFTFGQGTKLEIKR
2.2 | H36/L37 (antibody, human IgG1, kappa) heavy: not shown light: DVVMTQSPLSLPVTLGRPASISCRSSRNIVHTNGNTYLEWYQQKPGKAPKLLIYKVSNRFSGVPDRFSGSGSGTDFTLKISRVEAEDVGVYYCFQGSHIPFTFGRGTKLEIKRTVAAPSVFIFPPSDEQLKSGTASVVCLLNNFYPREAKVQWKVDNALQSGNSQESVTEQDSKDSTYSLSSTLTLSKADYEKHKVYACEVTHQGLSSPVTKSFNRGEC
2.04 | H46/L35 (antibody, human IgG1, kappa) heavy: not shown light: DVVMTQSPLSLPVTLGQPASISCRSSRNIVHTNGNTYLEWYQQKPGKAPKLLIYKVSNRFSGVPDRFSGSGSGTDFTLKISRVEAEDVGVYYCFQGSHIPFTFGRGTKLEIKRTVAAPSVFIFPPSDEQLKSGTASVVCLLNNFYPREAKVQWKVDNALQSGNSQESVTEQDSKDSTYSLSSTLTLSKADYEKHKVYACEVTHQGLSSPVTKSFNRGEC
2.22 | H46/L34 (antibody, human IgG1, kappa) heavy: not shown light: DVVMTQSPLSLPVTLGRPASISCRSSRNIVHTNGNTYLEWYQQKPGKAPKLLIYKVSNRFSGVPDRFSGSGSGTDFTLKISRVEAEDVGVYYCFQGSHIPFTFGQGTKLEIKRTVAAPSVFIFPPSDEQLKSGTASVVCLLNNFYPREAKVQWKVDNALQSGNSQESVTEQDSKDSTYSLSSTLTLSKADYEKHKVYACEVTHQGLSSPVTKSFNRGEC
1.8 | H46/L11 (antibody, human IgG1, kappa) heavy: not shown light: DVVMTQSPLSLPVTLGQPASISCQSSQNIVHTNGNTYLEWYQQKPGKAPELLIYKVSNRFSGVPDRFSGSGSGTDFTLKISRVEAEDVGVYYCFQGSHIPFTFGQGTKVEIERTVAAPSVFIFPPSDEQLKSGTASVVCLLNNFYPREAKVQWKVDNALQSGNSQESVTEQDSKDSTYSLSSTLTLSKADYEKHKVYACEVTHQGLSSPVTKSFNRGEC
1.9 | H46/L27 (antibody, human IgG1, kappa) heavy: not shown light: DVVMTQSPLSLPVTLGQPASISCRSSRNIVHTNGNTYLEWYQQKPGKAPELLIYKVSNRFSGVPDRFSGSGSGTDFTLKISRVEAEDVGVYYCFQGSHIPFTFGQGTKLEIKRTVAAPSVFIFPPSDEQLKSGTASVVCLLNNFYPREAKVQWKVDNALQSGNSQESVTEQDSKDSTYSLSSTLTLSKADYEKHKVYACEVTHQGLSSPVTKSFNRGEC
1.89 | H47/L1 (antibody, human IgG1, kappa) heavy: not shown light: DVVMTQSPLSLPVTLGQPASISCQSSQNIVHTNGNTYLEWYQQKPGKAPELLIYKVSNRFSGVPDRFSGSGSGTDFTLKISRVEAEDVGVYYCFQGSHIPFTFGQGTKLEIKRTVAAPSVFIFPPSDEQLKSGTASVVCLLNNFYPREAKVQWKVDNALQSGNSQESVTEQDSKDSTYSLSSTLTLSKADYEKHKVYACEVTHQGLSSPVTKSFNRGEC
1.84 | H47/L0 (antibody, human IgG1, kappa) heavy: not shown light: DVVMTQSPLSLPVTLGQPASISCRSSQNIVHTNGNTYLEWYQQKPGKAPELLIYKVSNRFSGVPDRFSGSGSGTDFTLKISRVEAEDVGVYYCFQGSHIPFTFGQGTKLEIKRTVAAPSVFIFPPSDEQLKSGTASVVCLLNNFYPREAKVQWKVDNALQSGNSQESVTEQDSKDSTYSLSSTLTLSKADYEKHKVYACEVTHQGLSSPVTKSFNRGEC
1.88 | H46/L10 (antibody, human IgG1, kappa) heavy: not shown light: DVVMTQSPLSLPVTLGQPASISCRSSQNIVHTNGNTYLEWYQQKPGKAPELLIYKVSNRFSGVPDRFSGSGSGTDFTLKISRVEAEDVGVYYCFQGSHIPFTFGQGTKVEIERTVAAPSVFIFPPSDEQLKSGTASVVCLLNNFYPREAKVQWKVDNALQSGNSQESVTEQDSKDSTYSLSSTLTLSKADYEKHKVYACEVTHQGLSSPVTKSFNRGEC
2.35 | H41/L0 (antibody, human IgG1, kappa, V domains shown) VH: QVTLKESGPVLVKPTETLTLTCTVSGFSLSRFGVDWVRQARGQRLEWMGVIWGGGSTNYNSALKSRLTISKDNSKSQVVLTMTNMDPVDTATYYCAGEGSKYGAWFAYWGQGTLVTVSS VL: DVVMTQSPLSLPVTLGQPASISCRSSQNIVHTNGNTYLEWYQQKPGKAPELLIYKVSNRFSGVPDRFSGSGSGTDFTLKISRVEAEDVGVYYCFQGSHIPFTFGQGTKLEIKR
